Key:
Experiment in all cases: SPR; KD relative to WT C2;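 further: biacore SPR at 37 °C, anti-C2 mAbs captured on an anti-human IgG chip, alanine or serine C2 surface mutants tested, KD from 1:1 fit compared with wild-type C2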
human C2 D417A = target: T1, human C2 D417A (human, UniProt P06681 21-752)
T1 sequence: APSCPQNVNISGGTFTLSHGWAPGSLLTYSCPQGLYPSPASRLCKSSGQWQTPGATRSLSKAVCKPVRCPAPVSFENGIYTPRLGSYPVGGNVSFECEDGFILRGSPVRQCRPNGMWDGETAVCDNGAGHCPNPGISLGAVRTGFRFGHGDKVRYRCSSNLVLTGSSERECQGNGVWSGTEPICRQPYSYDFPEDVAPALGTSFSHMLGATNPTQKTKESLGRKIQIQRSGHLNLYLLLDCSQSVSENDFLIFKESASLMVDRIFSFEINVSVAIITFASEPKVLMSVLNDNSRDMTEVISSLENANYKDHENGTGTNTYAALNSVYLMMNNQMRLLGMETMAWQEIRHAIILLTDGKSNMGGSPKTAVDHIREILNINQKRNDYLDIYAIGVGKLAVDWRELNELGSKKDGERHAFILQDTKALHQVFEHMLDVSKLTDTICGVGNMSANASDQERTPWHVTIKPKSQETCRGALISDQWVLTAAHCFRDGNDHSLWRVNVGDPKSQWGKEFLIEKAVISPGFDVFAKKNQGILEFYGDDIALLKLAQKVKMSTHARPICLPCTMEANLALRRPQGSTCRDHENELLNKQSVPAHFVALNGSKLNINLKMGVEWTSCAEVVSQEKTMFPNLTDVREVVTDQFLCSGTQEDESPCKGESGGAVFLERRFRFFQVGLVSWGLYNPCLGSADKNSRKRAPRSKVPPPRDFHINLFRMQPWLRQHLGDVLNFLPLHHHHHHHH

human C2 E686A = target: T2, human C2 E686A (human, UniProt P06681 21-752)
T2 sequence: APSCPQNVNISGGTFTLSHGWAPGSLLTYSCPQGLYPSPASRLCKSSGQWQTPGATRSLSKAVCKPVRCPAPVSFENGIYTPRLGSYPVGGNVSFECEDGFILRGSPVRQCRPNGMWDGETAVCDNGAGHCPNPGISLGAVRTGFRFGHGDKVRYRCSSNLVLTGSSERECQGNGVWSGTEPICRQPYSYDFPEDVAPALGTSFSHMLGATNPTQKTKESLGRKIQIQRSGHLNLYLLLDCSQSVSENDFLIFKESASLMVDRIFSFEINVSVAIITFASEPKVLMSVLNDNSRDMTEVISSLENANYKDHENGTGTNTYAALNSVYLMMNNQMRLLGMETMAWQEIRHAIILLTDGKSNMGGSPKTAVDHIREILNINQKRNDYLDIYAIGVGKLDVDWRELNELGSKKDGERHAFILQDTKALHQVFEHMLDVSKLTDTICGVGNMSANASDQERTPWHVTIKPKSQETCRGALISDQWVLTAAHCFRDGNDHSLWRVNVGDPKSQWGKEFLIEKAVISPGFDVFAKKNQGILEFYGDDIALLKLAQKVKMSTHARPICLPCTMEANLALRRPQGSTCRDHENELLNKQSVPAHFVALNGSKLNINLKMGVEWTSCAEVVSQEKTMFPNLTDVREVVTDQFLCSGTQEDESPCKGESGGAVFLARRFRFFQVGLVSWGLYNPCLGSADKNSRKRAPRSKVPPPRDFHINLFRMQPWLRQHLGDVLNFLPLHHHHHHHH

human C2 L453A = target: T3, human C2 L453A (human, UniProt P06681 21-752)
T3 sequence: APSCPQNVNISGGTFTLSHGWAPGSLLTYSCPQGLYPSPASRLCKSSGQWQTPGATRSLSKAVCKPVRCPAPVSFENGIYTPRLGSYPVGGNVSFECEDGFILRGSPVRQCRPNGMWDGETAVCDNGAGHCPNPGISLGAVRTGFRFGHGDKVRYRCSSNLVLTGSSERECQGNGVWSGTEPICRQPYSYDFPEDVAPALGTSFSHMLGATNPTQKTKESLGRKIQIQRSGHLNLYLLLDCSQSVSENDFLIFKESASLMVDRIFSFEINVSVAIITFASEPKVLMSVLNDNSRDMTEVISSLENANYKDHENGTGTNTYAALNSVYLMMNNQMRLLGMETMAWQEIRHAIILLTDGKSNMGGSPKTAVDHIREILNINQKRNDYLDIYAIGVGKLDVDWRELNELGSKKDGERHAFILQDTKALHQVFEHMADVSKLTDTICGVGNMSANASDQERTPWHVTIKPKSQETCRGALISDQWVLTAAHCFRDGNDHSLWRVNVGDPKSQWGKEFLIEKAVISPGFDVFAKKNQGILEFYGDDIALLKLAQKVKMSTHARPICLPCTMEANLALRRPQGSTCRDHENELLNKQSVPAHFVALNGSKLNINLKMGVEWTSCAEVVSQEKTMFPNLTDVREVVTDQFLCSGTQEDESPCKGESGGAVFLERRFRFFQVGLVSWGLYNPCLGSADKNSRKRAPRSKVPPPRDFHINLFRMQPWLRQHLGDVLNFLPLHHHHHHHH

human C2 A444S = target: T4, human C2 A444S (human, UniProt P06681 21-752)
T4 sequence: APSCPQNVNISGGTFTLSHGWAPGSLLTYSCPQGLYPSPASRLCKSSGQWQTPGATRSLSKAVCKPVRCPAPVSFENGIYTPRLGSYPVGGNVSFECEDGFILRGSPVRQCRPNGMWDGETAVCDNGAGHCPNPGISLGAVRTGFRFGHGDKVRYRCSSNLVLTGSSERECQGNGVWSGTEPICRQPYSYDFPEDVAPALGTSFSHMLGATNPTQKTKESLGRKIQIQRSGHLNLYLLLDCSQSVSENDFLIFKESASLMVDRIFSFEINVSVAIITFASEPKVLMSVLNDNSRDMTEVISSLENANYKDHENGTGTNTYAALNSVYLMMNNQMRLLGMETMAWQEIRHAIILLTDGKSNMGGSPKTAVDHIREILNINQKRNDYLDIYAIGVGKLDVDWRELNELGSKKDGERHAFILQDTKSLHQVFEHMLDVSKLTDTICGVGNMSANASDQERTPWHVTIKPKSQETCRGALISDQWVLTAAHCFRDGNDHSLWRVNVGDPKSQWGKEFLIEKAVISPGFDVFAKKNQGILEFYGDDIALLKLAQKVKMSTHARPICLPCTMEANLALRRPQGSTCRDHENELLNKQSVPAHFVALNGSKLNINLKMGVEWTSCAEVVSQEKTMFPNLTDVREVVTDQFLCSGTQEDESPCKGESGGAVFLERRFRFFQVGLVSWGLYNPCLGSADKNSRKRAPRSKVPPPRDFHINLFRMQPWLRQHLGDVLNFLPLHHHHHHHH

Fold diff (human C2 D417A): 2 fold
Fold diff (human C2 E686A): 4 fold
Fold diff (human C2 L453A): 45 fold
Fold diff (human C2 A444S): 1 fold
B1: RF16-214 (antibody, V domains shown)
VH: EVQLLESGGGLVQPGGSLRLSCAASGFTFSWYQMMWVRQAPGKGLEWVSRIYPSGGGTAYADSVKGRFTISRDNSKNTLYLQMNSLRAEDTAVYYCARDAGYGDNWGQGTLVTVSS
VL: QSALTQPPSVSVSPGQTASITCSGDKLGEKYASWYQQKAGQSPVMVIYQDRKRPSGIPERFSGSNSGNTATLTISGTQAMDEADYYCQAWDTRAVVFGGGTKLTVLG
